Laboratory results reported in PMC3257273, “Crystal Structure of a Human Single Domain Antibody Dimer Formed through VH-VH Non-Covalent Interactions” (PLoS ONE, 2012).

Target: T1, human HER2 (ErbB2)/Fc chimera (Homo sapiens, UniProt P04626)
T1 construct: human epidermal growth factor receptor-2 (HER2, ErbB2), the part present in the bought HER2 (ErbB2)/Fc chimera; also called HER2/Fc; human epidermal growth factor receptor-2; source: bought: R&D Systems
Assay: SPR; Biacore 3000; HER2 amine-coupled on CM5 chip (ovalbumin as reference surface); sdAb injected at 5 to 600 nM, 40 uL/min; room temperature; HBS-EP (10 mM HEPES pH 7.4, 150 mM NaCl, 3 mM EDTA, 0.005% P20); 1:1 Langmuir model
Conditions: both partners purified

B1: Gr3 (VHH)
VHH: QVQLVESGGGLIKPGGSLRLSCAASGFTVSYESMGWVRQAPGKGLEWVSAISSSGGSTYYADSVKGRFTISRDNSKNTVYLQMNSLRAEDTAVYYCVTPERQCKQSTCYARPRYWGQGTMVTVSS
notes: differs from Gr6 only in CDR1 and CDR3; selected from a synthetic human VH phage display library; Single-domain antibody from a human VH, not a camelid VHH; the vector may add further C-terminal residues besides the His tag; also called anti-HER2 sdAb Gr3; human VH single-domain antibody; source: E. coli periplasm, purified (IMAC, Ni-NTA / HiTrap chelating HP)
Question: Which Kd does the source give for B1 here?
Answer: Its Kd is 68 nM.

Question: And the koff?
Answer: The koff was 0.02 s⁻¹.

Question: What about the kon of the same binder?
Answer: Its kon is 290000 M⁻¹ s⁻¹.
